# Experimental data reported in PMC6538607.
# What was measured:
# [1] = target: p43, the major excreted/secreted protein of Trichuris muris (native p43) (Trichuris muris); assay: MST; serial dilution of IL-13 from 2500 nM to 40 pM with 5 nM NHS-647-labeled p43; 20 mM HEPES, 150 mM NaCl, 0.005% Tween-20, pH 7.4; KD model (1:1 stoichiometry); three reactions
# [2] = target: p43, the major excreted/secreted protein of Trichuris muris (native p43) (Trichuris muris); assay: native MS; p43 and IL-13 mixed at a ratio of 1.5:1 in 250 mM ammonium acetate, pH 7, 2 h at room temperature; nano-electrospray, collision-induced dissociation of the mass-selected 18+ ion of the complex
binder,measurement,setting,value
recombinant murine interleukin-13 (ligand) APGPVPRSVSLPLTLKELIEELSNITQDQTPLCNGSMVWSVDLAAGGFCVALDSLTNISNCNAIYRTQRILHGLCNRKAPTTVSSLPDTKIEVAHFITKLLSYTKQLFRHGPF,Kd,[1],420 nM
same,stoichiometry N,[2],1
